ELISA_avg data for 17 molecules are collected here from patent publication US20230125550A1 (ARCELLX, published 2023).

T1: recombinant human CD123-Fc (human, UniProt P26951 19-305)
T1 construct: not shown: Fc part of CD123-Fc
T1 sequence: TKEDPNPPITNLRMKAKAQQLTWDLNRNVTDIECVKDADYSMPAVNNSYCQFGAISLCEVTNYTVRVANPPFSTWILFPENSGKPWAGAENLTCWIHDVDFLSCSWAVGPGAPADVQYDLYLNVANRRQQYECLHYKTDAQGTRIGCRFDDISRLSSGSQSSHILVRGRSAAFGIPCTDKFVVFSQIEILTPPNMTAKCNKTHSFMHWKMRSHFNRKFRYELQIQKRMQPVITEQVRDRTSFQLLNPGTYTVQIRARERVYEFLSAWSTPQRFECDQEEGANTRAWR

B1: SEQ ID NO: 595 (designed binder)
chain: MGSWTEFDERLDAIDWRLEALGGSEAELAWFEGDIALFEQYLQVYKGKGNPEVEALMEEADAIKAELDAYRHN
notes: D domain, on phage
B2: SEQ ID NO: 600 (designed binder)
chain: MGSWEEFEDRLWAIDGRLYALGGSEAELAWFEQWIATFEEDLQDYKGKGNPEVEALEYEASAIFEELEAYRHN
notes: D domain, on phage
B3: SEQ ID NO: 594 (designed binder)
chain: MGSWVEFDSRLAAIDYRLEALGGSEAELAWFEYTIANFEHTLQMYKGKGNPEVEALVYEAHAIATELQAYRHN
notes: D domain, on phage
B4: SEQ ID NO: 589 (designed binder)
chain: MGSWEEFEDRLFAIDSRLWALGGSEAELAEFENIIASFEEVLQEYKGKGNPEVEALSVEAFAIDRELGAYRHN
notes: D domain, on phage
B5: SEQ ID NO: 591 (designed binder)
chain: MGSWVEFDNRLFAIDERLWALGGSEAELAWFEEEIASFEDNLQKYKGKGNPEVEALQLEAFAIMEELDAYRHN
notes: D domain, on phage
B6: SEQ ID NO: 584 (designed binder)
chain: MGSWHEFEERLMAIEDRLWALGGSEAELAEFEQWIALFEYDLQEYKGKGNPEVEALGMEAFAINNELSAYRHN
notes: D domain, on phage
B7: SEQ ID NO: 588 (designed binder)
chain: MGSWMEFEDRLMAIVDRLWALGGSEAELADFEWNIAMFEEELQWYKGKGNPEVEALGDEAEAIEWELYAYRHN
notes: D domain, on phage
B8: SEQ ID NO: 587 (designed binder)
chain: MGSWIEFEDRLDAITDRLWALGGSEAELAEFEHQIAFFEEDLQWYKGKGNPEVEALHMEAEAIMEELGAYRHN
notes: D domain, on phage
B9: SEQ ID NO: 593 (designed binder)
chain: MGSWFEFDARLMAINDRLWALGGSEAELAAFEYHIALFEDQLQMYKGKGNPEVEALTLEAVAINEELWAYRHN
notes: D domain, on phage
B10: SEQ ID NO: 592 (designed binder)
chain: MGSWFEFDDRLEAIFDRLWALGGSEAELAMFEFAIAEFEDALQEYKGKGNPEVEALYEEAVAIDEELYAYRHN
notes: D domain, on phage
B11: SEQ ID NO: 596 (designed binder)
chain: MGSWIEFDERLDAIDFRLWALGGSEAELAWFEGWIAEFESDLQLYKGKGNPEVEALNEEANAIFHELSAYRHN
notes: D domain, on phage
B12: SEQ ID NO: 599 (designed binder)
chain: MGSWYEFQERLDAIDSRLWALGGSEAELAWFEYTIAEFEKELQMYKGKGNPEVEALGTEAVAISEELMAYRHN
notes: D domain, on phage
B13: SEQ ID NO: 586 (designed binder)
chain: MGSWHEFEKRLYAIEDRLIALGGSEAELAWFEDSIAWFEWDLQMYKGKGNPEVEALNEEADAIYQELDAYRHN
notes: D domain, on phage
B14: SEQ ID NO: 585 (designed binder)
chain: MGSWYEFEERLDAIEDRLIALGGSEAELAIFEDIIAFFEQDLQYYKGKGNPEVEALEMEAEAISIELDAYRHN
notes: D domain, on phage
B15: SEQ ID NO: 597 (designed binder)
chain: MGSWWEFDSRLDAIDFRLWALGGSEAELAWFEVEIADFEDWLQLYKGKGNPEVEALWHEADAIVTELYAYRHN
notes: D domain, on phage
B16: SEQ ID NO: 590 (designed binder)
chain: MGSWEEFLFRLEAIQDRLWALGGSEAELAWFEYEIASFEDVLQSYKGKGNPEVEALSTEAKAIDYELFAYRHN
notes: D domain, on phage
B17: SEQ ID NO: 598 (designed binder)
chain: MGSWYEFDERLDAIFDRLWALGGSEAELAYFEQVIATFEKTLQRYKGKGNPEVEALDTEAKAISWELDAYRHN
notes: D domain, on phage

This assay has as its target T1, recombinant human CD123-Fc. Briefly: phage ELISA, captured CD123-Fc. An outline of the steps: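 Phage from BCMA panning colonies were rescued with VCSM13 helper phage and diluted 5× in blocking buffer. Plates coated with anti-human IgG1-Fc captured 5 nM target-Fc or IgG1-Fc, and binding was detected with HRP anti-M13. Ratio = A450 target/A450 IgG1-Fc, averaged over the clone's wells.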
(In general: In an ELISA, binding on a coated surface is turned into a signal by an enzyme label.)
On to B1, for which the ELISA_avg came out at 4.5 ratio A450 target/IgG1-Fc.

Regarding B2, the ELISA_avg amounted to 9.4 ratio A450 target/IgG1-Fc.

In the case of B3, the ELISA_avg stood at 3.4 ratio A450 target/IgG1-Fc.

With B4, the ELISA_avg came to 3.7 ratio A450 target/IgG1-Fc.

Turning to B5, the ELISA_avg turned out to be 3.3 ratio A450 target/IgG1-Fc.

Regarding B6, the ELISA_avg came to 5.8 ratio A450 target/IgG1-Fc.

As to B7, the ELISA_avg worked out at 6.8 ratio A450 target/IgG1-Fc.

For B8, the ELISA_avg was 9.5 ratio A450 target/IgG1-Fc.

On to B9, for which the ELISA_avg turned out to be 4 ratio A450 target/IgG1-Fc.

For the molecule B10, the ELISA_avg was found to be 4.1 ratio A450 target/IgG1-Fc.

On to B11, for which the ELISA_avg amounted to 7 ratio A450 target/IgG1-Fc.

For B12, the ELISA_avg was found to be 5.5 ratio A450 target/IgG1-Fc.

Consider B13, for which the ELISA_avg turned out to be 3.6 ratio A450 target/IgG1-Fc.

On to B14, for which the ELISA_avg stood at 4.1 ratio A450 target/IgG1-Fc.

Consider B15, for which the ELISA_avg is 3.2 ratio A450 target/IgG1-Fc.

In the case of B16, the ELISA_avg came out at 8.2 ratio A450 target/IgG1-Fc.

Consider B17, for which the ELISA_avg turned out to be 3 ratio A450 target/IgG1-Fc.
